Fluid phase alternative pathway C3 convertase (C3bBb) assay, proteolytic release of C3a quantified by SDS-PAGE; rHC1 and Kd data for 1 molecule are collected here from article PMC7170535.

For experiment [1], the target named is complement C3 (human).
For experiment [2], the target named is complement C3 (human). Put plainly: SPR; ~2,000 RU C3 immobilised on a CM5 chip; rHC1 as analyte; HEPES-buffered saline pH 7.5, 0.05% Tween 20, 2 mM MnCl2. For orientation: Surface plasmon resonance follows binding to a sensor surface in real time, without labels.
Experiment [3] concerns the target complement C3 (human). Put plainly: SPR; ~2,000 RU C3 immobilised on a CM5 chip by amide coupling; rHC1 or IαI as analyte; HEPES-buffered saline pH 7.5, 0.05% Tween 20, 2 mM Mg2+, 2 mM Mn2+; multicycle kinetics, 1:1 Langmuir.

For orientation: Kd means the concentration at which binding is half-saturated.

B1: recombinant inter-α-inhibitor heavy chain 1 (rHC1), wild type (natural protein)
chain: SKSSEKRQAVDTAVDGVFIRSLKVNCKVTSRFAHYVVTSQVVNTANEAREVAFDLEIPKTAFISDFAVTADGNAFIGDIKDKVTAWKQYRKAAISGENAGLVRASGRTMEQFTIHLTVNPQSKVTFQLTYEEVLKRNHMQYEIVIKVKPKQLVHHFEIDVDIFEPQGISKLDAQASFLPKELAAQTIKKSFSGKKGHVLFRPTVSQQQSCPTCSTSLLNGHFKVTYDVSRDKICDLLVANNHFAHFFAPQNLTNMNKNVVFVIDISGSMRGQKVKQTKEALLKILGDMQPGDYFDLVLFGTRVQSWKGSLVQASEANLQAAQDFVRGFSLDEATNLNGGLLRGIEILNQVQESLPELSNHASILIMLTDGDPTEGVTDRSQILKNVRNAIRGRFPLYNLGFGHNVDFNFLEVMSMENNGRAQRIYEDHDATQQLQGFYSQVAKPLLVDVDLQYPQDAVLALTQNHHKQYYEGSEIVVAGRIADNKQSSFKADVQAHGEGQEFSITCLVDEEEMKKLLRERGHMLENHVERLWAYLTIQELLAKRMKVDREERANLSSQALQMSLDYGFVTPLTSMSIRGMADQDGLKPTIDKPSEDSPPLEMLGPRRTFVLSALQPSPTHSSSNTQRLPDRVTGVDTD
In experiment [1], B1 gave a fluid phase alternative pathway C3 convertase (C3bBb) assay, proteolytic release of C3a quantified by SDS-PAGE; rHC1 at 0 to 27 μM of 980 nM. Besides, the figures for the Kd in experiment [2] and in experiment [3] were 473 nM and 364 nM, respectively.
